The record followed here is IntAct's records for PubMed 24165923.

In this assay the target is rspo1_human RSPO1 (UniProt Q2MKA7).
Sequence of rspo1_human RSPO1 (Q2MKA7 whole entry): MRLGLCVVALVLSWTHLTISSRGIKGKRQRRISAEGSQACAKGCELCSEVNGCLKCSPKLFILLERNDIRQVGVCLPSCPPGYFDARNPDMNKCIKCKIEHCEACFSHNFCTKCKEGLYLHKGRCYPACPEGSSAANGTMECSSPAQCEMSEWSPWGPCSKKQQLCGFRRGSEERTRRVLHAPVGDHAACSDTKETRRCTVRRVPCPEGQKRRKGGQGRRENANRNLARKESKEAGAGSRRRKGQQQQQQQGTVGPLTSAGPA

In the case of “E3 ubiquitin-protein ligase ZNRF3 (Homo sapiens), Q9ULT6 P103A”, the “effect of a mutation on the interaction” value is “disrupting interaction”.
